According to patent publication CN106632674A:

How the values were obtained:
[1] = target: PD-1ECD-TEV-mFc融合蛋白 (human); assay: indirect ELISA, coated PD-1 Fc fusion (mFc form assumed for 5C4), run together with 6F5 and 6F5(Re)
[2] = target: PD-1ECD-TEV-mFc融合蛋白 (human); assay: indirect ELISA, coated PD-1 Fc fusion (mFc form assumed for 5C4), run together with 6F5H1L1 and 6F5H2L2
[3] = target: PD-1ECD-TEV-hFc融合蛋白 (human); assay: competition ELISA, antibody titrated from 1.5 ug/ml against PDL-1 Fc fusion (2 ug/ml; PDL-1-mFc assumed) on coated PD-1 Fc fusion (PD-1-hFc assumed)
PD-1ECD-TEV-hFc融合蛋白 (human), sequence (main, as listed by the source, form in doubt): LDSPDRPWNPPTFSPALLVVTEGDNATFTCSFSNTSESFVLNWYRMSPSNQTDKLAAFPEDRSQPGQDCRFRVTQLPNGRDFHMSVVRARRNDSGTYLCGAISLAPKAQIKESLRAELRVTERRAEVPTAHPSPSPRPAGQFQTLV

PD-1ECD-TEV-mFc融合蛋白 (human), sequence (main, as listed by the source, form in doubt): as above

## 阳性对照抗体5C4 (antibody)
[1]
  EC50: 0.199 nM
[2]
  EC50: 0.233 nM
[3]
  EC50: 1.46 nM
